Like-named read-outs stand apart in the source and are kept apart here.
Assays:
[1] = biological target: Recombinant human tropoelastin lacking domain 26A (human); test: ELISA
[2] = biological target: Recombinant human tropoelastin lacking domain 26A (human); test: SPR
[3] = biological target: Human fibrillin-1 fragment PF2 (human) (UniProt P35555); test: ELISA
[4] = biological target: Human fibrillin-1 N-terminal fragment PF1, encoded by exons 1–11 (residues 31–489) (human) (UniProt P35555); test: ELISA
Chain of Human fibrillin-1 N-terminal fragment PF1, encoded by exons 1–11 (residues 31–489) (human) (P35555 31-489): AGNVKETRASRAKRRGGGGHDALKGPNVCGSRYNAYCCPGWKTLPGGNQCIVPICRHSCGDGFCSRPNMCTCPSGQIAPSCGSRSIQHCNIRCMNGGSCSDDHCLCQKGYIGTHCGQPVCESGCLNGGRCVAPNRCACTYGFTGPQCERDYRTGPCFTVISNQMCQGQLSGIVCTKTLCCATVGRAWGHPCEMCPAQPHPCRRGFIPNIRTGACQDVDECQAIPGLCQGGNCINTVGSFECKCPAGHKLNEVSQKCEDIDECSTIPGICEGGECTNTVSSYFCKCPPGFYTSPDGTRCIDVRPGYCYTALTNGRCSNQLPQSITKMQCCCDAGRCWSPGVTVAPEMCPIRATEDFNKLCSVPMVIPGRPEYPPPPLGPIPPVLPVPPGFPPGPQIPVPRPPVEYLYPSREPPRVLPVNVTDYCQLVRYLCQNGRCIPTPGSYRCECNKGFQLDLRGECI

[5] = biological target: Full-length human fibulin-5 (residues 42–448) (human) (UniProt Q9UBX5); test: ELISA
[6] = biological target: Full-length human fibulin-5 (residues 42–448) (human) (UniProt Q9UBX5); test: ELISA; remark: listed apart in the source
[7] = biological target: Recombinant human tropoelastin lacking domain 26A (human); test: ELISA; remark: listed apart in the source
[8] = biological target: PF1 variant with the Marfan mutation S115C (human, UniProt P35555 31-489, S115C); test: ELISA
Chain of PF1 variant with the Marfan mutation S115C (P35555 31-489 S115C): as the sequence (P35555 31-489) above, with S85C counted along it

[9] = biological target: PF1 variant with the Marfan mutation R62C (human, UniProt P35555 31-489, R62C); test: ELISA
Chain of PF1 variant with the Marfan mutation R62C (P35555 31-489 R62C): as the sequence (P35555 31-489) above, with R32C counted along it

[10] = biological target: PF1 variant with the Marfan mutation T101A (human, UniProt P35555 31-489, T101A); test: ELISA
Chain of PF1 variant with the Marfan mutation T101A (P35555 31-489 T101A): as the sequence (P35555 31-489) above, with T71A counted along it

SEC-MALS = biological target: the molecule itself; test: SEC-MALS

Chain of Human fibrillin-1 fragment PF2 (human) (P35555 45-2731): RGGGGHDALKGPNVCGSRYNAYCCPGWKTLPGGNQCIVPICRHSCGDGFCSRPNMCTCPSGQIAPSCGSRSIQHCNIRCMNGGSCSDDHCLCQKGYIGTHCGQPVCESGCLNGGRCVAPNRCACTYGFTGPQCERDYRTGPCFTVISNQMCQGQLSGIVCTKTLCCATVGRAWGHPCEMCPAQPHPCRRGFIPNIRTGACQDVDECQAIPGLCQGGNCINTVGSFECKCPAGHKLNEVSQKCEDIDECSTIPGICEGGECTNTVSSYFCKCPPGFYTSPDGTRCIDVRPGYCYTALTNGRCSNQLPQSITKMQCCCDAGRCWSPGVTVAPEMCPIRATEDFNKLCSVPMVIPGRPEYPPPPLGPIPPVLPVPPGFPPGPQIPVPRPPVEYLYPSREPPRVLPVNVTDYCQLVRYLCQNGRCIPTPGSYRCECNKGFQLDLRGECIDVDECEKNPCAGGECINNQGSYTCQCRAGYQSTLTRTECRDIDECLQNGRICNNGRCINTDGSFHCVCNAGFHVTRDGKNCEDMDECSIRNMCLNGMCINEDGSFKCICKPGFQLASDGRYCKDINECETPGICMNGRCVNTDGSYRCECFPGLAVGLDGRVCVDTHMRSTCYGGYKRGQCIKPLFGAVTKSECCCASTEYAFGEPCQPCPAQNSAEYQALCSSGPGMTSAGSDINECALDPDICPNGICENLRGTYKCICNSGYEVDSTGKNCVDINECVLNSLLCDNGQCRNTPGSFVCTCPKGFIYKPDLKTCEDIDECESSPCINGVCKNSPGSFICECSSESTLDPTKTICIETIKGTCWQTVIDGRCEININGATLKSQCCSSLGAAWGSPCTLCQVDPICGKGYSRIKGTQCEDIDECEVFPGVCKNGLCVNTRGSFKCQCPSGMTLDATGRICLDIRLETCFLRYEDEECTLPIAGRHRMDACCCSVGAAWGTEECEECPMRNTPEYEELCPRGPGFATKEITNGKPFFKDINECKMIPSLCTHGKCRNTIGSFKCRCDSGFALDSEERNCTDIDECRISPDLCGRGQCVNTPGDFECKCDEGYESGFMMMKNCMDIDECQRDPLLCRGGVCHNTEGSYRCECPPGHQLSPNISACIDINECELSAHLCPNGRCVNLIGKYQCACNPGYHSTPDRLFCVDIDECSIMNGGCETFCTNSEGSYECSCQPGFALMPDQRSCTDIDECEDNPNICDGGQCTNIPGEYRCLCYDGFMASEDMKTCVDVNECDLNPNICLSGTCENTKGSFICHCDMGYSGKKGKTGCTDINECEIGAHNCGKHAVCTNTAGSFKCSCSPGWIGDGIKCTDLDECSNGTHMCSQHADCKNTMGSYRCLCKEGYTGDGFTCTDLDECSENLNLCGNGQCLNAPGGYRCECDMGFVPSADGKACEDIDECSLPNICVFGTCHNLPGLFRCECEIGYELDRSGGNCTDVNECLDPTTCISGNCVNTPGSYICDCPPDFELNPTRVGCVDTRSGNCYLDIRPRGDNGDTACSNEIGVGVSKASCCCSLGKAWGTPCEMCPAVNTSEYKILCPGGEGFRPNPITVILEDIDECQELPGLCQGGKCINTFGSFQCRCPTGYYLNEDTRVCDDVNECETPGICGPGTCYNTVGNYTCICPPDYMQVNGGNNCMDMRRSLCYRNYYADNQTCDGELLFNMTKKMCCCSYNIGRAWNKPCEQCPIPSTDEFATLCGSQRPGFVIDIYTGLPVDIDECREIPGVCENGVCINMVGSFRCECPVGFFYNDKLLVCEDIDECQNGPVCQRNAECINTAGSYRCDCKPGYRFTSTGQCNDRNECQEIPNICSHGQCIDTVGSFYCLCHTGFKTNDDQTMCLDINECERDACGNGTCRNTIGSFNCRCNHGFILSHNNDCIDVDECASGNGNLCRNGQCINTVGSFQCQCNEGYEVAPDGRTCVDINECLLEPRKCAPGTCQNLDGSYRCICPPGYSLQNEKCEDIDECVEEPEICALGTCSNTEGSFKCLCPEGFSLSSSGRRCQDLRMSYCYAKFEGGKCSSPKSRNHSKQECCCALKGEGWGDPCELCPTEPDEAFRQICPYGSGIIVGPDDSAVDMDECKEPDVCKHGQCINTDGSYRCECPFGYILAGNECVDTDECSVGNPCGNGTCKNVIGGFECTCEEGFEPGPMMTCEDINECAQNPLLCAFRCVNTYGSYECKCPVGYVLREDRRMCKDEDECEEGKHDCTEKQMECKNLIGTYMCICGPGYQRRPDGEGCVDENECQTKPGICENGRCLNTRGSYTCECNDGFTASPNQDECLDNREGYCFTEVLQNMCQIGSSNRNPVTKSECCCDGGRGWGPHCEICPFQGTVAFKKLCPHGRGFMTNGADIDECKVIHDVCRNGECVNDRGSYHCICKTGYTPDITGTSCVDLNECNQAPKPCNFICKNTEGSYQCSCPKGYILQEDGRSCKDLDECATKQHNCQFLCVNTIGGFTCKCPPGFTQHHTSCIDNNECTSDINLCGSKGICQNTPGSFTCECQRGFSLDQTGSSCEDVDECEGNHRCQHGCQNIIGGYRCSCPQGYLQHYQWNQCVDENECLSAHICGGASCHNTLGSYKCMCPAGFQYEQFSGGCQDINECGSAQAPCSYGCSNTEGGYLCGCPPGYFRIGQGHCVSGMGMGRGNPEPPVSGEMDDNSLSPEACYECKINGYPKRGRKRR

Q: For “Fibulin-5 domain pair F5-E4+5 (residues 207–287) (from UniProt Q9UBX5 207-287) (domain or fragment)”, which Kd [1] is on record?
A: Its Kd is 452 nM.

Q: How did the Kd [2] turn out when “Full-length fibulin-5 with the cutis laxa mutation C217R (from UniProt Q9UBX5 42-448) (natural protein)” was run?
A: The Kd was 865 nM.

Q: What about the koff [2] of the same molecule?
A: The koff was 0.0046 s⁻¹.

Q: What about the kon [2] of the same molecule?
A: Its kon is 8400 M⁻¹ s⁻¹.

Q: With “Full-length fibulin-5 with the cutis laxa mutation S227P (from UniProt Q9UBX5 42-448) (natural protein)” as the molecule, how does the Kd [2] read?
A: Its Kd is 3420 nM.

Q: And the koff [2]?
A: The koff was 0.0093 s⁻¹.

Q: And the kon [2]?
A: The kon was 20000 M⁻¹ s⁻¹.

Q: Which Kd [1] does the source give for “Full-length human fibulin-4 (residues 26–418) (from UniProt O95967 26-443) (natural protein)” here?
A: The Kd was 131 nM.

Q: And the Kd [3]?
A: Its Kd is 194 nM.

Q: Which results are given for “Full-length human fibulin-5 (residues 42–448) (from UniProt Q9UBX5 42-448) (natural protein)”?
A: Kd [2]: 64 nM; koff [2]: 0.0013 s⁻¹; kon [2]: 44000 M⁻¹ s⁻¹

Q: For “Human full-length lysyl oxidase (from UniProt P28300 22-417) (enzyme)”, which Kd [4] is on record?
A: The Kd was 26 nM.

Q: And the Kd [5]?
A: Its Kd is 304 nM.

Q: And the Kd [1]?
A: Its Kd is 49 nM.

Q: What about the Kd [6] of the same molecule?
A: The Kd was 338 nM.

B1: Fibulin-5 domain pair F5-E1+2 (residues 42–167) (domain or fragment)
chain: DIDECRTIPEACRGDMMCVNQNGGYLCIPRTNPVYRGPYSNPYSTPYSGPYPAAAPPLSAPNYPTISRPLICRFGYQMDESNQCVDVDECATDSHQCNPTQICINTEGGYTCSCTDGYWLLEGQCL
modifications: biotinylated where it was the soluble ligand of a solid phase assay
Q: How did the Kd [7] turn out when B1 was run?
A: Its Kd is 332 nM.

Q: Does B1 bind [8]?
A: Result: binds

Q: Does B1 bind [9]?
A: Result: binds

Q: Does B1 bind [10]?
A: Result: binds

B2: N-terminal four domains of fibulin-4 (residues 26–217) (domain or fragment)
chain: SPQDSEEPDSYTECTDGYEWDPDSQHCRDVNECLTIPEACKGEMKCINHYGGYLCLPRSAAVINDLHGEGPPPPVPPAQHPNPCPPGYEPDDQDSCVDVDECAQALHDCRPSQDCHNLPGSYQCTCPDGYRKIGPECVDIDECRYRYCQHRCVNLPGSFRCQCEPGFQLGPNNRSCVDVNECDMGAPCEQRCFNSYGTFLCRCHQGYELHRDGFSCS
modifications: biotinylated where it was the soluble ligand of a solid phase assay
Q: For B2, which “stoichiometry N” value (SEC-MALS) is on record?
A: The value was 2.

B3: Full-length human fibulin-4 (residues 26–418) (natural protein)
chain: SPQDSEEPDSYTECTDGYEWDPDSQHCRDVNECLTIPEACKGEMKCINHYGGYLCLPRSAAVINDLHGEGPPPPVPPAQHPNPCPPGYEPDDQDSCVDVDECAQALHDCRPSQDCHNLPGSYQCTCPDGYRKIGPECVDIDECRYRYCQHRCVNLPGSFRCQCEPGFQLGPNNRSCVDVNECDMGAPCEQRCFNSYGTFLCRCHQGYELHRDGFSCSDIDECSYSSYLCQYRCINEPGRFSCHCPQGYQLLATRLCQDIDECESGAHQCSEAQTCVNFHGGYRCVDTNRCVEPYIQVSENRCLCPASNPLCREQPSSIVHRYMTITSERSVPADVFQIQATSVYPGAYNAFQIRAGNSQGDFYIRQINNVSAMLVLARPVTGPREYVLDLEMVTMNSLMSYRASSVLRLTVFVGAYTF
modifications: biotinylated (sulfosuccinimidyl 2-(biotinamido)-ethyl-1,3-dithiopropionate) where it was the soluble ligand of a solid phase assay
Q: With B3 as the molecule, how does the “stoichiometry N” value (SEC-MALS) read?
A: The value was 2.

B4: Fibulin-5 domain pair F5-E6FC (residues 288–448) (domain or fragment)
chain: DINECEHRNHTCNLQQTCYNLQGGFKCIDPIRCEEPYLRISDNRCMCPAENPGCRDQPFTILYRDMDVVSGRSVPADIFQMQATTRYPGAYYIFQIKSGNEGREFYMRQTGPISATLVMTRPIKGPREIQLDLEMITVNTVINFRGSSVIRLRIYVSQYPF
modifications: biotinylated where it was the soluble ligand of a solid phase assay
Q: With B4 as the molecule, how does the Kd [7] read?
A: Its Kd is 965 nM.

Q: Does B4 bind [8]?
A: Result: binds

Q: Does B4 bind [9]?
A: Result: binds

Q: Does B4 bind [10]?
A: Result: binds
